Measured values: patent US20230340128A1 (Xencor, published 2023)

Key:
human mesothelin (MSLN) [1] = target: T1, human mesothelin (MSLN) (human, UniProt Q13421 296-580, limits assumed); assay: BLI (Octet), multiple concentrations, bsAb in 1+1 Fab-scFv-Fc format
T1 construct: Antigen of the Octet KD values

human mesothelin (MSLN) [2] = target: T1, human mesothelin (MSLN); assay: KD quoted in the FIG. 25 legend; Octet (BLI) per FIGS. 20-21
[3] = target: MSLN on OVCAR8 cells (~90K MSLN antigens/cell) (UniProt Q13421 296-598); assay: binding to OVCAR8 cells, MFI APC against mAb concentration
human mesothelin (MSLN) [4] = target: T1, human mesothelin (MSLN); assay: BLI (Octet), multiple concentrations, bsAb in 1+1 Fab-scFv-Fc format; lower table, column 'human MSLN (M)'
human CD28 = target: T2, human CD28 (human, UniProt P10747 19-152, limits assumed); assay: label in the legend box: nominal affinity of the CD28 binding domain (paragraph 422 calls such label values KD); method not stated on the sheet
T2 construct: also called Cluster of Differentiation 28; Tp44

[5] = target: T3, MSLN on OVCAR8 cells (~90K MSLN antigens/cell) (UniProt Q13421 296-598); assay: flow cytometry on OVCAR8 cells, 1 h at 4 C, anti-human-Fc A647 secondary
T3 construct: whole, on cells; Endogenous expression on a cancer cell line
Description: In this experiment, 50,000 OVCAR8 cells (˜90K MSLN antigens/cell) were seeded per well in a plate. Anti-human-Fc secondary (A647) was added for 30 min at 4° C., and binding was assessed via FACs. FIG. 39C depicts that the CD28×MSLN bsAbs in neither 1+1-Fab-scFv format nor the 2+1 mAb-scFv format antibodies show any significant off target binding. In this experiment, 50,000 SKOV3 cells (˜9K MSLN antigens/cell) were seeded per well in a plate. Anti-human-Fc secondary (A647) was added for 30 min at 4° C., and binding was assessed via FACs.
In order to assess the binding of MSLN×CD28 bsAbs in different formats, an experiment was conducted in which 50,000 OVCAR8 cells (˜90K MSLN antigens/cell) were seeded per well in a plate. Anti-human-Fc secondary (A647) was added for 30 min at 4° C., and binding was assessed via FACs.

human mesothelin (MSLN) [6] = target: T1, human mesothelin (MSLN); assay: label in the legend box: nominal affinity of the MSLN binding domain (paragraph 422 calls such label values KD); method not stated on the sheet

EC50 (read off the curve) [3] [µg/mL] | Kd (human CD28) [nM] | EC50 (read off the curve) [5] [µg/mL] | Kd (human mesothelin (MSLN) [6]) [nM] | Binder | other results
 |  |  |  | XENP32937 (bispecific antibody) chain 1: QVQLVQSGAEVKKPGASVKVSCKASGYTFTSYWMHWVRQAPGQGLEWMGMIHPNSDNTIYYQKFQGRVTMTVDKSISTAYMELSRLRSDDTAVYYCAIIITPVVPKFDYWGQGTLVTVSSASTKGPSVFPLAPSSKSTSGGTAALGCLVKDYFPEPVTVSWNSGALTSGVHTFPAVLQSSGLYSLSSVVTVPSSSLGTQTYICNVNHKPSDTKVDKKVEPKSCDKTHTCPPCPAPPVAGPSVFLFPPKPKDTLMISRTPEVTCVVVDVKHEDPEVKFNWYVDGVEVHNAKTKPREEEYNSTYRVVSVLTVLHQDWLNGKEYKCKVSNKALPAPIEKTISKAKGQPREPQVYTLPPSREEMTKNQVSLTCDVSGFYPSDIAVEWESDGQPENNYKTTPPVLDSDGSFFLYSKLTVDKSRWEQGDVFSCSVMHEALHNHYTQKSLSLSPGK chain 2: not shown chain 3: DIVMTQSPDSLAVSLGERATINCKASHDVGTSVAWYQQKPGQSPKLLIYWASTRHTGVPDRFTGSGSGTDFTLTISSLQAEDVAVYFCQQYYSYPLTFGAGTKLEIKRTVAAPSVFIFPPSDEQLKSGTASVVCLLNNFYPREAKVQWKVDNALQSGNSQESVTEQDSKDSTYSLSSTLTLSKADYEKHKVYACEVTHQGLSSPVTKSFNRGEC | Kd (human mesothelin (MSLN) [1]): 10.2 nM; koff (human mesothelin (MSLN) [1]): 0.00822 s⁻¹; kon (human mesothelin (MSLN) [1]): 803000 M⁻¹ s⁻¹
~0.04 |  |  |  | XENP31717 (bispecific antibody) chain 1: QVQLVQSGAEVKKPGASVKVSCKASGYTFTSYWMHWVRQAPGQGLEWMGMIHPNSDNTIYYEKFQGRVTMTVDKSISTAYMELSRLRSDDTAVYYCAIIITPVVPKFDYWGQGTLVTVSSASTKGPSVFPLAPSSKSTSGGTAALGCLVKDYFPEPVTVSWNSGALTSGVHTFPAVLQSSGLYSLSSVVTVPSSSLGTQTYICNVNHKPSDTKVDKKVEPKSCDKTHTCPPCPAPPVAGPSVFLFPPKPKDTLMISRTPEVTCVVVDVKHEDPEVKFNWYVDGVEVHNAKTKPREEEYNSTYRVVSVLTVLHQDWLNGKEYKCKVSNKALPAPIEKTISKAKGQPREPQVYTLPPSREEMTKNQVSLTCDVSGFYPSDIAVEWESDGQPENNYKTTPPVLDSDGSFFLYSKLTVDKSRWEQGDVFSCSVMHEALHNHYTQKSLSLSPGK chain 2: QVQLVQSGAEVKKPGASVKVSCKASGYTFTSYWMHWVRQAPGQGLEWMGMIHPNSDNTIYYEKFQGRVTMTVDKSISTAYMELSRLRSDDTAVYYCAIIITPVVPKFDYWGQGTLVTVSSASTKGPSVFPLAPSSKSTSGGTAALGCLVKDYFPEPVTVSWNSGALTSGVHTFPAVLQSSGLYSLSSVVTVPSSSLGTQTYICNVNHKPSNTKVDKKVEPKSCGGGGSGGGGSQAVVTQEPSLTVSPGGTVTLTCGSSTGAVTTSNYANWVQQKPGKSPRGLIGGTNKRAPGVPARFSGSLLGGKAALTISGAQPEDEADYYCALWYSNHWVFGGGTKLTVLGKPGSGKPGSGKPGSGKPGSEVQLVESGGGLVQPGGSLRLSCAASGFTFSTYAMNWVRQAPGKGLEWVGRIRSKANNYATYYADSVKGRFTISRDDSKNTLYLQMNSLRAEDTAVYYCVRHGNFGDSYVSWFAYWGQGTLVTVSSGGGGSGGGGSKTHTCPPCPAPPVAGPSVFLFPPKPKDTLMISRTPEVTCVVVDVKHEDPEVKFNWYVDGVEVHNAKTKPREEQYNSTYRVVSVLTVLHQDWLNGKEYKCKVSNKALPAPIEKTISKAKGQPREPQVYTLPPSREQMTKNQVKLTCLVKGFYPSDIAVEWESNGQPENNYKTTPPVLDSDGSFFLYSKLTVDKSRWQQGNVFSCSVMHEALHNHYTQKSLSLSPGK chain 3: DIVMTQSPDSLAVSLGERATINCKASHDVGTSVAWYQQKPGQSPKLLIYWASTRHTGVPDRFTGSGSGTDFTLTISSLQAEDVAVYFCQQYSSYPLTFGAGTKLEIKRTVAAPSVFIFPPSDEQLKSGTASVVCLLNNFYPREAKVQWKVDNALQSGNSQESVTEQDSKDSTYSLSSTLTLSKADYEKHKVYACEVTHQGLSSPVTKSFNRGEC | Kd (human mesothelin (MSLN) [2]): 0.28 nM
~0.07 |  |  |  | XENP31697 (bispecific antibody) chain 1: QVQLVQSGAEVKKPGASVKVSCKASGYTFTSYWMHWVRQAPGQGLEWMGMIHPNSDNTIYYEKFQGRVTMTVDKSISTAYMELSRLRSDDTAVYYCAIIITPVVPKFDYWGQGTLVTVSSASTKGPSVFPLAPSSKSTSGGTAALGCLVKDYFPEPVTVSWNSGALTSGVHTFPAVLQSSGLYSLSSVVTVPSSSLGTQTYICNVNHKPSDTKVDKKVEPKSCDKTHTCPPCPAPPVAGPSVFLFPPKPKDTLMISRTPEVTCVVVDVKHEDPEVKFNWYVDGVEVHNAKTKPREEEYNSTYRVVSVLTVLHQDWLNGKEYKCKVSNKALPAPIEKTISKAKGQPREPQVYTLPPSREEMTKNQVSLTCDVSGFYPSDIAVEWESDGQPENNYKTTPPVLDSDGSFFLYSKLTVDKSRWEQGDVFSCSVMHEALHNHYTQKSLSLSPGK chain 2: not shown chain 3: DIVMTQSPDSLAVSLGERATINCKASHDVGTSVAWYQQKPGQSPKLLIYWASTRHTGVPDRFTGSGSGTDFTLTISSLQAEDVAVYFCQQYSSYPLTFGAGTKLEIKRTVAAPSVFIFPPSDEQLKSGTASVVCLLNNFYPREAKVQWKVDNALQSGNSQESVTEQDSKDSTYSLSSTLTLSKADYEKHKVYACEVTHQGLSSPVTKSFNRGEC | Kd (human mesothelin (MSLN) [4]): 0.28 nM
 | 180 | ~0.005 | 0.3 | XENP44475 (bispecific antibody, also called XENP44475 MSLN (0.3 nM) x CD28 (180 nM) 2+1 Fab2-Fc x scFv-Fc) heavy: QVQLVQSGAEVKKPGASVKVSCKASGYTFTSYWMHWVRQAPGQGLEWMGMIHPNSDNTIYYEKFQGRVTMTVDKSISTAYMELSRLRSDDTAVYYCAIIITPVVPKFDYWGQGTLVTVSSASTKGPSVFPLAPSSKSTSGGTAALGCLVKDYFPEPVTVSWNSGALTSGVHTFPAVLQSSGLYSLSSVVTVPSSSLGTQTYICNVNHKPSDTKVDKKVEPKSCGGGGSGGGGSQVQLVQSGAEVKKPGASVKVSCKASGYTFTSYWMHWVRQAPGQGLEWMGMIHPNSDNTIYYEKFQGRVTMTVDKSISTAYMELSRLRSDDTAVYYCAIIITPVVPKFDYWGQGTLVTVSSASTKGPSVFPLAPSSKSTSGGTAALGCLVKDYFPEPVTVSWNSGALTSGVHTFPAVLQSSGLYSLSSVVTVPSSSLGTQTYICNVNHKPSDTKVDKKVEPKSCDKTHTCPPCPAPPVAGPSVFLFPPKPKDTLMISRTPEVTCVVVDVKHEDPEVKFNWYVDGVEVHNAKTKPREEEYNSTYRVVSVLTVLHQDWLNGKEYKCKVSNKALPAPIEKTISKAKGQPREPQVYTLPPSREEMTKNQVSLTCDVSGFYPSDIAVEWESDGQPENNYKTTPPVLDSDGSFFLYSKLTVDKSRWEQGDVFSCSVLHEALHSHYTQKSLSLSPGK scFv-Fc: not shown light 1: DIVMTQSPDSLAVSLGERATINCKASHDVGTSVAWYQQKPGQSPKLLIYWASTRHTGVPDRFTGSGSGTDFTLTISSLQAEDVAVYFCQQYSSYPLTFGAGTKLEIKRTVAAPSVFIFPPSDEQLKSGTASVVCLLNNFYPREAKVQWKVDNALQSGNSQESVTEQDSKDSTYSLSSTLTLSKADYEKHKVYACEVTHQGLSSPVTKSFNRGEC light 2: DIVMTQSPDSLAVSLGERATINCKASHDVGTSVAWYQQKPGQSPKLLIYWASTRHTGVPDRFTGSGSGTDFTLTISSLQAEDVAVYFCQQYSSYPLTFGAGTKLEIKRTVAAPSVFIFPPSDEQLKSGTASVVCLLNNFYPREAKVQWKVDNALQSGNSQESVTEQDSKDSTYSLSSTLTLSKADYEKHKVYACEVTHQGLSSPVTKSFNRGEC | 
 | 180 | ~0.004 | 0.3 | XENP44469 (bispecific antibody, also called XENP44469 MSLN (0.3 nM) x CD28 (180 nM) 2+1 Fab2-scFv-Fc) heavy 1: QVQLVQSGAEVKKPGASVKVSCKASGYTFTSYWMHWVRQAPGQGLEWMGMIHPNSDNTIYYEKFQGRVTMTVDKSISTAYMELSRLRSDDTAVYYCAIIITPVVPKFDYWGQGTLVTVSSASTKGPSVFPLAPSSKSTSGGTAALGCLVKDYFPEPVTVSWNSGALTSGVHTFPAVLQSSGLYSLSSVVTVPSSSLGTQTYICNVNHKPSDTKVDKKVEPKSCDKTHTCPPCPAPPVAGPSVFLFPPKPKDTLMISRTPEVTCVVVDVKHEDPEVKFNWYVDGVEVHNAKTKPREEEYNSTYRVVSVLTVLHQDWLNGKEYKCKVSNKALPAPIEKTISKAKGQPREPQVYTLPPSREEMTKNQVSLTCDVSGFYPSDIAVEWESDGQPENNYKTTPPVLDSDGSFFLYSKLTVDKSRWEQGDVFSCSVLHEALHSHYTQKSLSLSPGK heavy 2: not shown light 1: DIVMTQSPDSLAVSLGERATINCKASHDVGTSVAWYQQKPGQSPKLLIYWASTRHTGVPDRFTGSGSGTDFTLTISSLQAEDVAVYFCQQYSSYPLTFGAGTKLEIKRTVAAPSVFIFPPSDEQLKSGTASVVCLLNNFYPREAKVQWKVDNALQSGNSQESVTEQDSKDSTYSLSSTLTLSKADYEKHKVYACEVTHQGLSSPVTKSFNRGEC light 2: DIVMTQSPDSLAVSLGERATINCKASHDVGTSVAWYQQKPGQSPKLLIYWASTRHTGVPDRFTGSGSGTDFTLTISSLQAEDVAVYFCQQYSSYPLTFGAGTKLEIKRTVAAPSVFIFPPSDEQLKSGTASVVCLLNNFYPREAKVQWKVDNALQSGNSQESVTEQDSKDSTYSLSSTLTLSKADYEKHKVYACEVTHQGLSSPVTKSFNRGEC | 
